{"source": "paper PMC4402518", "target": "Hop2;Mnd1 (Giardia lamblia ATCC 50803;Giardia lamblia ATCC 50803) (UniProt E2RTU1)", "experiment": "fluorescence anisotropy", "conditions": "Fluorescence anisotropy: 20 mM Tris-HCl pH 7.5, 100 mM NaCl, 5 mM MgCl2, 25 C, 50 nM DNA, triplicate, Exo I assay conditions not in material"}
{"sequence": "GCGGGTAATCCAGATGTTCCACGTGAAACAGAACAACTAA (double strand) [40 bp dsDNA]", "values": [{"measurement": "Kd", "setting": "5 mM Mg2+", "result": 100, "unit": "nM"}, {"measurement": "binding signal (fold weaker than with 5 mM Mg2+)", "setting": "no Mg2+", "result": 10}]}
